# Results as given in patent US5777073.
# Where two headings read alike, the source gives them in different places.
# Legend:
# [1] = molecular target: CRF receptors on rat anterior pituitary cells (rat)
# [2] = molecular target: CRF receptors on rat anterior pituitary cells (rat); remark: listed apart in the source
# [3] = molecular target: CRF receptors on rat anterior pituitary cells (rat); remark: listed apart in the source
# [4] = molecular target: CRF receptors on rat anterior pituitary cells (rat); remark: listed apart in the source
# [5] = molecular target: CRF receptors on rat anterior pituitary cells (rat); remark: listed apart in the source
# [6] = molecular target: CRF receptors on rat anterior pituitary cells (rat); remark: listed apart in the source
# [7] = molecular target: CRF receptors on rat anterior pituitary cells (rat); remark: listed apart in the source
# [8] = molecular target: CRF receptors on rat anterior pituitary cells (rat); remark: listed apart in the source
# [9] = molecular target: CRF receptors on rat anterior pituitary cells (rat); remark: listed apart in the source
# [10] = molecular target: CRF receptors on rat anterior pituitary cells (rat); remark: listed apart in the source
# [11] = molecular target: CRF receptors on rat anterior pituitary cells (rat); remark: listed apart in the source
# [12] = molecular target: CRF receptors on rat anterior pituitary cells (rat); remark: listed apart in the source
# [13] = molecular target: CRF receptors on rat anterior pituitary cells (rat); remark: listed apart in the source
# [14] = molecular target: CRF receptors on rat anterior pituitary cells (rat); remark: listed apart in the source
# [15] = molecular target: CRF receptors on rat anterior pituitary cells (rat); remark: listed apart in the source
# [16] = molecular target: CRF receptors on rat anterior pituitary cells (rat); remark: listed apart in the source
# [17] = molecular target: CRF receptors on rat anterior pituitary cells (rat); remark: listed apart in the source
# [18] = molecular target: CRF receptors on rat anterior pituitary cells (rat); remark: listed apart in the source
# [19] = molecular target: CRF receptors on rat anterior pituitary cells (rat); remark: listed apart in the source
# hCRF-RA1 (human) = hCRF-RA1 (human) (UniProt P34998); test: radioligand binding assay
substance,measurement,setting,value
"(bicyclo 20-23, 30-33) D-Phe^12, Nle^21,38, D-Ala^22, LyS^23,33, Glu^30, D-His^32 !-r/hCRF(12-41) (peptide)",in vitro biopotency: inhibition of ACTH secretion (times the Standard),[1],8.61
"(bicyclo 20-23, 30-33) D-Phe^12, Nle^21,38, Lys^23,33, Glu^30 !-r/hCRF(12-41) (peptide)",in vitro biopotency: inhibition of ACTH secretion (times the Standard),[2],8.3
"(cyclo 30-33) Ac-Asp^9, D-Phe^12, Nle^21,38, Glu^30, Lys^33 !-r/hCRF(9-41) (peptide)",in vitro biopotency: inhibition of ACTH secretion (times the Standard),[3],172
"(cyclo 30-33) Ac-D-Phe^12, Nle^21,38, Glu^30, D-His^32, Lys^33 !-r/hCRF(12-41) (peptide)",in vitro biopotency: inhibition of ACTH secretion (times Peptide IV),[4],1.24
"(cyclo 30-33) Ac-D-Phe^12, Nle^21,38, Glu^30, Lys^33 !-r/hCRF(12-41) (peptide)",in vitro biopotency: inhibition of ACTH secretion (times the Standard),[3],36.5
"(cyclo 30-33) Ac-Leu^10, D-Phe^12, Nle^21,38, Glu^30, Lys^33 !-r/hCRF(10-41) (peptide)",in vitro biopotency: inhibition of ACTH secretion (times the Standard),[3],34
"(cyclo 30-33) Ac-Thr^11, D-Phe^12, Nle^21,38, Glu^30, D-His^32, Lys^33 !-r/hCRF(11-41) (peptide)",in vitro biopotency: inhibition of ACTH secretion (times Peptide IV),[5],3.08
"(cyclo 30-33) Ac-Thr^11, D-Phe^12, Nle^21,38, Glu^30, Lys^33 !-r/hCRF(11-41) (peptide)",in vitro biopotency: inhibition of ACTH secretion (times the Standard),[3],64
"(cyclo 30-33) D-Phe^12, CML^15, Nle^21,38, Glu^30, imBzlD-His^32, Lys^33 !-r/hCRF (12-41) (peptide)",in vitro biopotency: inhibition of ACTH secretion (times the Standard),[6],23.5
"(cyclo 30-33) D-Phe^12, Nle^18,21, Glu^30, D-Ala^32, Lys^33 !-Carp Urotensin I (12-41) (peptide)",in vitro biopotency: inhibition of ACTH secretion (times Peptide IV),[7],0.831
"(cyclo 30-33) D-Phe^12, Nle^21,38, Glu^30, D-2Nal^32, Lys^33 !-r/hCRF(12-41) (peptide)",in vitro biopotency: inhibition of ACTH secretion (times the Standard),[8],18
"(cyclo 30-33) D-Phe^12, Nle^21,38, Glu^30, D-Arg^32, Lys^33 !-r/hCRF(12-41) (peptide)",in vitro biopotency: inhibition of ACTH secretion (times the Standard),[9],60
"(cyclo 30-33) D-Phe^12, Nle^21,38, Glu^30, D-Glu^32, Lys^33 !-r/hCRF(12-41) (peptide)",in vitro biopotency: inhibition of ACTH secretion (times the Standard),[10],10
"(cyclo 30-33) D-Phe^12, Nle^21,38, Glu^30, D-His^32, Lys^33 !-r/hCRF(11-41) (peptide)",in vitro biopotency: inhibition of ACTH secretion (times Peptide IV),[11],0.78
"(cyclo 30-33) D-Phe^12, Nle^21,38, Glu^30, D-His^32, Lys^33 !-r/hCRF(12-41) (peptide)",in vitro biopotency: inhibition of ACTH secretion (times the Standard),[12],80.3
"(cyclo 30-33) D-Phe^12, Nle^21,38, Glu^30, Lys^33 !-r/hCRF(9-41) (peptide)",in vitro biopotency: inhibition of ACTH secretion (times the Standard),[13],33.8
"(cyclo 30-33) D-Phe^12, Nle^21,38, Glu^30, Lys^33 !-r/hCRF(10-41) (peptide)",in vitro biopotency: inhibition of ACTH secretion (times the Standard),[14],31.6
"(cyclo 30-33) D-Phe^12, Nle^21,38, Glu^30, Lys^33 !-r/hCRF(11-41) (peptide)",in vitro biopotency: inhibition of ACTH secretion (times the Standard),[15],40.3
"(cyclo 30-33) D-Phe^12, Nle^21,38, Glu^30, Lys^33 !-r/hCRF(12-41) (peptide)",in vitro biopotency: inhibition of ACTH secretion (times the Standard),[16],33
same,intrinsic CRF activity,[17],< 3%
"(cyclo 30-33) D-Tyr^12, Glu^13, Lys^17,33, Nle^21,38, Glu^30, Asn^32, Arg^36 !-r/hCRF(12-41) (peptide)",in vitro biopotency: inhibition of ACTH secretion (times the Standard),[18],49
"(cyclo 30-33) D-Tyr^12, Nle^21,38, Glu^30, Asn^32, Lys^33, Arg^36 !-r/hCRF (12-41) (peptide)",in vitro biopotency: inhibition of ACTH secretion (times the Standard),[19],79
"(cyclo 30-33) I^125 -D-Tyr^12, Glu^30, Lys^33, Nle^21,38 !-r/hCRF(12-41) (peptide)",Kd,hCRF-RA1 (human),2 nM
